Results published in article PMC9082959, “Mechanism of Assembly of the Non-Covalent Spectrin Tetramerization Domain from Intrinsically Disordered Partners” (Journal of molecular biology, 2013).
Changes are numbered by the printed parent chain.

Tests used:
Assay in all cases: ITC; β16β17 at 25–50 μM in the cell titrated with 15–20 injections to 2–2.5 eq of α0α1; one-site binding model; PBS (50 mM sodium phosphate, 150 mM NaCl, pH 7.04), 25 °C; mutants only against the wild-type partner
Conditions in all cases: both partners purified
β16β17 S57G = molecular target: T1, β16β17 S57G (human, UniProt P11277 1898-2083, S2060G)
T1 construct: erythrocyte β-spectrin, human, residues 1898-2083 (β16β17); mutant of m2; also called S2060G; source: E. coli C41(DE3), purified (Ni2+ agarose, thrombin cleavage, gel filtration)
T1 sequence (looked up): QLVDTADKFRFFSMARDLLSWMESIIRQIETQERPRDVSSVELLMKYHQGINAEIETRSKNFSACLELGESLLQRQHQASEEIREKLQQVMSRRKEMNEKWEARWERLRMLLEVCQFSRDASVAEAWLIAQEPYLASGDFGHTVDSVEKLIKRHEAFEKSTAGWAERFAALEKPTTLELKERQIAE

β16β17 K46G = molecular target: T2, β16β17 K46G (human, UniProt P11277 1898-2083, K2049G)
T2 construct: erythrocyte β-spectrin, human, residues 1898-2083 (β16β17); mutant of m2; also called K2049G; source: E. coli C41(DE3), purified (Ni2+ agarose, thrombin cleavage, gel filtration)
T2 sequence (looked up): T1 sequence (looked up) with K152G, G163S

β16β17 D39A = molecular target: T3, β16β17 D39A (human, UniProt P11277 1898-2083, D2042A)
T3 construct: erythrocyte β-spectrin, human, residues 1898-2083 (β16β17); mutant of m2; also called D2042A; source: E. coli C41(DE3), purified (Ni2+ agarose, thrombin cleavage, gel filtration)
T3 sequence (looked up): T1 sequence (looked up) with D145A, G163S

β16β17 R13G = molecular target: T4, β16β17 R13G (human, UniProt P11277 1898-2083, R2016G)
T4 construct: erythrocyte β-spectrin, human, residues 1898-2083 (β16β17); mutant of m2; also called R2016G; source: E. coli C41(DE3), purified (Ni2+ agarose, thrombin cleavage, gel filtration)
T4 sequence (looked up): T1 sequence (looked up) with R119G, G163S

β16β17 S16G = molecular target: T5, β16β17 S16G (human, UniProt P11277 1898-2083, S2019G)
T5 construct: erythrocyte β-spectrin, human, residues 1898-2083 (β16β17); mutant of m2; also called S2019G; source: E. coli C41(DE3), purified (Ni2+ agarose, thrombin cleavage, gel filtration)
T5 sequence (looked up): T1 sequence (looked up) with S122G, G163S

β16β17 K43A = molecular target: T6, β16β17 K43A (human, UniProt P11277 1898-2083, K2046A)
T6 construct: erythrocyte β-spectrin, human, residues 1898-2083 (β16β17); mutant of m2; also called K2046A; source: E. coli C41(DE3), purified (Ni2+ agarose, thrombin cleavage, gel filtration)
T6 sequence (looked up): T1 sequence (looked up) with K149A, G163S

B1: α0α1 (erythrocyte α-spectrin residues 2–163), wild type (domain or fragment, human, UniProt P02549 2-163, looked up)
chain: EQFPKETVVESSGPKVLETAEEIQERRQEVLTRYQSFKERVAERGQKLEDSYHLQVFKRDADDLGKWIMEKVNILTDKSYEDPTNIQGKYQKHQSLEAEVQTKSRLMSELEKTREERFTMGHSAHEETKAHIEELRHLWDLLLELTLEKGDQLLRALKFQQY
notes: synthetic gene (GenScript) in a modified pRSETA plasmid; also called α1α0; source: E. coli C41(DE3), purified (Ni2+ agarose, thrombin cleavage, gel filtration)
β16β17 S57G
  Ka: 900000 M⁻¹
β16β17 K46G
  Ka: 230000 M⁻¹
β16β17 D39A
  Ka: 470000 M⁻¹
β16β17 R13G
  Ka: 71000 M⁻¹
β16β17 S16G
  Ka: 360000 M⁻¹
β16β17 K43A
  Ka: 1.8e+06 M⁻¹
